# From patent US20140004122A1, “METHODS FOR TREATING OR PREVENTING CHOLESTEROL RELATED DISORDERS” (AMGEN INC., priority 2011, published 2014)
# B1: 21B12: human anti-PCSK9 monoclonal antibody; light/heavy variable region SEQ ID NO 23/49 (antibody, listed as Homo sapiens, V domains shown)
# VH: QVQLVQSGAEVKKPGASVKVSCKASGYTLTSYGISWVRQAPGQGLEWMGWVSFYNGNTNYAQKLQGRGTMTTDPSTSTAYMELRSLRSDDTAVYYCARGYGMDVWGQGTTVTVSS
# VL: QSALTQPASVSGSPGQSITISCTGTSSDVGGYNSVSWYQQHPGKAPKLMIYEVSNRPSGVSNRFSGSKSGNTASLTISGLQAEDEADYYCNSYTSTSMVFGGGTKLTVL
# Legend:
# [1] = system: hypercholesterolemic subjects unable to tolerate an effective dose of an HMG-CoA reductase inhibitor; test: 12 week study vs ezetimibe in statin-intolerant patients (Example 23); type: in vivo, human; conditions: preliminary
# Procedure: It is planned to enroll 150 subjects. […] Randomization will be stratified by screening LDL-C level (<130 mg/dL [3.4 mmol/L] vs≧130 mg/dL) and statin use at baseline (yes vs no). Randomization should occur within 5-10 days of the screening LDL-C evaluation used to determine eligibility. Monoclonal antibody, 21B12, and placebo will be blinded. Ezetimibe is not blinded. Study visits are at weeks 2, 4, 8, and 12. […] The end-of-study visit and the last evaluation of lipids is at week 12.
# Males and females, ≧18 to ≦75 years of age, are eligible for this study. Subject must have tried at least 1 statin and have been unable to tolerate any dose or an increase in statin dose above the following total weekly maximum doses due to myalgia or myopathy: atorvastatin ≦70 mg, simvastatin ≦140 mg, pravastatin ≦140 mg, rosuvastatin ≦35 mg, lovastatin ≦140 mg, fluvastatin ≦280 mg. For unlisted statins, the maximal total weekly dose should not exceed 7 times the smallest available tablet size. Symptoms must have resolved when statin was discontinued or the dose reduced. If receiving statin (not exceeding the maximal dose defined above), bile-acid sequestering resin, and/or stanol therapy, the dose(s) must be stable for at least 4 weeks prior to LDL-C screening. If the subject is on ezetimibe at start of screening, ezetimibe must be discontinued for ≧4 weeks before LDL-C screening. Depending on their risk category (based on NCEP ATP III treatment goals) subjects must meet the following fasting LDL-C (by central laboratory) criteria at screening: ≧100 mg/dL (2.6 mmol/L) for subjects with diagnosed coronary heart disease (CHD) or CHD risk equivalent; ≧130 mg/dL (3.4 mmol/L) for subjects without diagnosed CHD or risk equivalent and 2 or more risk factors; ≧160 mg/dL (4.1 mmol/L) for subjects without diagnosed CHD or risk equivalent and with 1 or no risk factors. Fasting triglycerides must be ≦400 mg/dL (4.5 mmol/L) as determined by the central laboratory analysis at screening.
# [2] = system: human patient exhibiting symptoms of hypercholesterolemia; test: Treatment of hypercholesterolemia (Example 17); type: in vivo; conditions: therapeutically effective amount
# Text: At periodic times during the treatment, the human patient is monitored to determine whether the serum cholesterol level has declined.
# healthy subjects = test: Phase 1 ascending single dose study (Example 20); type: in vivo, human
# cynomolgus monkeys = test: Serum lipids after single subcutaneous dose in cynomolgus monkeys (Example 36); type: in vivo, cynomolgus monkey; conditions: 0.5 mg/kg single SC
# Text: Briefly, naive male cynomolgus monkeys were acclimated to their environment for at least 2 weeks prior to experimentation. Animals were randomized into treatment groups based on a pre-screen of their serum TC, HDL-C, LDL-C, and triglyceride levels, and their body weight. After 1 week, animals were fasted overnight, and bled from the peripheral vasculature (cephalic or saphenous vein), for measurement of baseline serum lipid levels at a time point designated T=0. […] Fasting blood samples were then collected from animals at designated time points over a 45 day period.
# At specified time points, blood was collected from animals under overnight fasting conditions from the peripheral vasculature (cephalic or saphenous vein). Whole blood was allowed to coagulate for 30 minutes at room temperature. Following centrifugation at 3,000 rpm for 20 minutes, serum was collected. Direct serum cholesterol analysis was performed using the Cobas Integra 400 analyzer (Roche Diagnostics Inc, Indianapolis, Ind.). Apolipoprotein B serum levels were determined at specified time points (day 0, 3, 6, 15, 24 and 33) by Anilytics, MD, with the following methodology. A 17 μL aliquot of the sample (no preparation) was used for analysis with a Hitachi 717 Analyzer using a 6 points standard curve. If the initial value of the sample was higher than the standard curve linearity, then the sample was diluted and repeated with the result multiplied by the appropriate dilution factor. The reagents for the assay (APO-B Reagent Kit #86071, Antibody Set #86060, Control Set #86103) were obtained from DiaSorin (Stillwater, Minn.).
# A statistical model that considers baseline as a covariate and treatment group as a fixed effect was fit to the log transformed response at each time point for LDL-C, HDL-C, TC, and triglycerides. Tukey's multiple comparison correction was applied to adjust the pair wise comparisons at each time point. The statistical significance was evaluated at alpha=0.05 using adjusted p-values.
# [3] = 280 mg Q4W SC, end of the dosing interval
# [4] = 350 mg Q4W SC, end of the dosing interval
molecule,measurement,setting,value
B1,LS mean percent increase from baseline in HDL-C,[1]; [3],8.62%
same,LS mean percent reduction from baseline in LDL-C,[1]; [3],38.79%
same,LS mean percent reduction from baseline in Lp(a),[1]; [3],27.38%
same,LS mean percent reduction from baseline in VLDL-C,[1]; [3],31.02%
same,LS mean percent reduction from baseline in non-HDL-C,[1]; [3],39.92%
same,LS mean percent reduction from baseline in total cholesterol,[1]; [3],31.03%
same,LS mean percent reduction from baseline in triglycerides,[1]; [3],15.35%
same,LS mean percent increase from baseline in HDL-C,[1]; [4],4.62%
same,LS mean percent reduction from baseline in LDL-C,[1]; [4],40.01%
same,LS mean percent reduction from baseline in Lp(a),[1]; [4],16.04%
same,LS mean percent reduction from baseline in VLDL-C,[1]; [4],38.14%
same,LS mean percent reduction from baseline in non-HDL-C,[1]; [4],42.86%
same,LS mean percent reduction from baseline in total cholesterol,[1]; [4],34.46%
same,LS mean percent reduction from baseline in triglycerides,[1]; [4],19.22%
same,LS mean percent increase from baseline in HDL-C,[1]; 420 mg Q4W SC,7.55%
same,LS mean percent reduction from baseline in LDL-C,[1]; 420 mg Q4W SC,50.63%
same,LS mean percent reduction from baseline in Lp(a),[1]; 420 mg Q4W SC,23.84%
same,LS mean percent reduction from baseline in VLDL-C,[1]; 420 mg Q4W SC,37.27%
same,LS mean percent reduction from baseline in non-HDL-C,[1]; 420 mg Q4W SC,53.49%
same,LS mean percent reduction from baseline in total cholesterol,[1]; 420 mg Q4W SC,42.23%
same,LS mean percent reduction from baseline in triglycerides,[1]; 420 mg Q4W SC,19.55%
same,serum cholesterol levels vs patients not receiving the treatment,[2],reduced serum cholesterol levels
same,AUC0-inf (median),healthy subjects; 420 mg IV group,1550 µg·days/mL
same,median maximum observed concentration (Cmax),healthy subjects; 420 mg IV group,139 µg/mL
same,subjects with treatment-related adverse events,healthy subjects; 18 of 42 subjects,43%
same,subjects with treatment-emergent adverse events,"healthy subjects; 21B12 at any dose, 29 of 42 subjects",69%
same,anti-21B12 antibodies in serum,healthy subjects; all 42 subjects who received 21B12,negative
same,"effects on laboratory variables, ECGs, vital signs",healthy subjects; in vivo,no trends indicative of clinically important effects
same,tolerability,healthy subjects; single SC and IV doses up to 420 mg,well tolerated
same,serious adverse events,healthy subjects; single SC or IV dose,No adverse events were reported as serious
same,LDL-C nadir observed within (after dosing),healthy subjects; single dose,≤ 2 weeks
same,elimination,healthy subjects; single dose SC or IV,nonlinear (concentration-dependent) elimination
same,suppression of PCSK9,healthy subjects; single doses ≧70 mg SC,Complete suppression of PCSK9
same,LDL-C returned to levels similar to control animals by day,cynomolgus monkeys,≤ 6 days
same,TC returned to levels similar to control animals by day,cynomolgus monkeys,≤ 4 days
same,maximal lowering of LDL-C as compared to anti-KLH IgG2 control antibody-treated monkeys,cynomolgus monkeys,64%
same,maximal lowering of TC as compared to control animals,cynomolgus monkeys,20%
same,time of maximal LDL-C lowering after injection,cynomolgus monkeys,3 days
same,time of maximal TC lowering after injection,cynomolgus monkeys,3 days
same,HDL-C levels,cynomolgus monkeys; 45 day study,"lowered HDL-C at a single time point, 18 days after injection"
same,triglycerides levels,cynomolgus monkeys; 45 day study,No statistically significant changes
same,HDL-C or triglyceride levels vs anti-KLH IgG2 control antibody-treated monkeys,cynomolgus monkeys; alpha=0.05,statistically significant change in HDL-C at a single time point (day 18 following injection)
same,serum ApoB levels vs anti-KLH IgG2 control antibody-treated monkeys,"cynomolgus monkeys; days 3, 6, 15, 24 and 33",statistically significant lower ApoB levels at day 3 only
same,maximal lowering of LDL-C (vs anti-KLH IgG2 control antibody at the same time point),cynomolgus monkeys; printed as negative change,−64%
